Test [1] concerns the target cynomolgus TIM-3 ECD Fc fusion (made in-house) (cynomolgus monkey (Macaca fascicularis); human). Put plainly: SPR (IBIS MX96), TIM-3 ECD-Fc captured, Fab injected 1-100 nM, 1:1 fit.
For test [2], the target named is cynomolgus TIM-3 Fc fusion antigen (Sino Biologicals) (cynomolgus monkey). The experiment in a line: ELISA, EC50 on cynomolgus TIM-3 against EC50 on human TIM-3. A general note: ELISA stands for enzyme-linked immunosorbent assay.
The target is the same in test [3]. The experiment in a line: ELISA, TIM-3 Fc fusion coated at 1 ug/ml, antibody titrated from 1000 nM.

Chain of cynomolgus TIM-3 Fc fusion antigen (Sino Biologicals) (cynomolgus monkey) (chain, as listed by the source limits assumed): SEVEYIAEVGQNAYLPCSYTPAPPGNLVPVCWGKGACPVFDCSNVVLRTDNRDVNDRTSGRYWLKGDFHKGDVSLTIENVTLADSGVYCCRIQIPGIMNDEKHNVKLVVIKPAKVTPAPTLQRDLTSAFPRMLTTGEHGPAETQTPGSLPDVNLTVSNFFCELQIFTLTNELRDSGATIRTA
Chain of cynomolgus TIM-3 ECD Fc fusion (made in-house) (cynomolgus monkey (Macaca fascicularis); human) (chain, as listed by the source limits assumed): as above

By Kd is commonly meant the concentration at which binding is half-saturated. As for “Fab fragment of 18564 ABTIM3 (reference analogue)”, the Kd in test [1] amounted to 25 nM.

B1: antibody 19416 (antibody, V domains shown)
VH: QVQLVESGPGLVKPSQTLSLTCTVSGGSINSGGYYWSWIRQHPGKGLEWIGYIYYSGSIYYNPSLRSRLTISVDTSKNQFSLKLSSVTAADTAVYYCATPYYYGSGSYGDYWGQGTLVTVSS
VL: DIQMTQSPATLSLSPGERATLSCRASQSVNNYLAWYQQKPGQAPRLLIYDASNRATGIPARFSGSGSGTDFTLTISSLEPEDFAVYYCQQRSNWPITFGQGTRLEIK
The EC50 is the midpoint of the concentration-response curve. Consider B1, for which, in test [2], the Ratio Cynomolgus/Human EC50 stood at 47. Besides, in test [3], the EC50 turned out to be 9.42 nM.
